Source: PMC9482650, “Quantitative fragmentomics allow affinity mapping of interactomes” (Nature Communications, 2022)

T1: PDZD7_3, Q9H5P4
T1 sequence (Q9H5P4 857-944, limits assumed, looked up): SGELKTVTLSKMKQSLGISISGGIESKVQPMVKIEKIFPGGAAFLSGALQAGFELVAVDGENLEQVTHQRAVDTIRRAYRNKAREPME

T2: APBA3_1, O96018
T2 sequence (O96018 389-490, limits assumed, looked up): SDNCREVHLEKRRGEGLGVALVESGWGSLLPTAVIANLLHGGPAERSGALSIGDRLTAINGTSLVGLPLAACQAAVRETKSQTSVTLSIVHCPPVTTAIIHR

T3: GRIP1_4, Q9Y3R0
T3 sequence (Q9Y3R0 467-571, limits assumed, looked up): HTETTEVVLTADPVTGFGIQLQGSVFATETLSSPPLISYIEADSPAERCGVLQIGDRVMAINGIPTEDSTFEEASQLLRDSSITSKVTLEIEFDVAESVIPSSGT

T4: HTRA4, P83105
T4 sequence (P83105 378-476, limits assumed, looked up): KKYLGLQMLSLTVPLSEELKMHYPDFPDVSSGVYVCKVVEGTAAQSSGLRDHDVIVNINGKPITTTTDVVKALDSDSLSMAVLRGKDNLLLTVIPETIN

T5: LIN7B, Q9HAP6
T5 sequence (Q9HAP6 88-185, limits assumed, looked up): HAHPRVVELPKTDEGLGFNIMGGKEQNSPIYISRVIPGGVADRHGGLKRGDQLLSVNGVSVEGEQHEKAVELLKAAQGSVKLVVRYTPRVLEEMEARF

T6: DVL3, Q92997
T6 sequence (Q92997 244-331, limits assumed, looked up): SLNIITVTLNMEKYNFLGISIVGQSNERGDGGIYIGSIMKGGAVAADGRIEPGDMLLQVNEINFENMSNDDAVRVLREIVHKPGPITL

T7: FRMPD1, Q5SYB0
T7 sequence (Q5SYB0 52-145, limits assumed, looked up): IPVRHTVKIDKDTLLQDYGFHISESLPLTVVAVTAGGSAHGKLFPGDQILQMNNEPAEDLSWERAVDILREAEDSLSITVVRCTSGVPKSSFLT

T8: LNX2_3, Q8N448
T8 sequence (Q8N448 463-564, limits assumed, looked up): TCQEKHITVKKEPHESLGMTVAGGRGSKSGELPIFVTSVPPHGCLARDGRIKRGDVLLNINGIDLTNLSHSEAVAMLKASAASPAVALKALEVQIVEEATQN

T9: MPP2, Q14168
T9 sequence (Q14168 180-250, limits assumed, looked up): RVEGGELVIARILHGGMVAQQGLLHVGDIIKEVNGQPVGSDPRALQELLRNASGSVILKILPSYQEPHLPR

T10: PDZD2_2, O15018
T10 sequence (O15018 329-429, limits assumed, looked up): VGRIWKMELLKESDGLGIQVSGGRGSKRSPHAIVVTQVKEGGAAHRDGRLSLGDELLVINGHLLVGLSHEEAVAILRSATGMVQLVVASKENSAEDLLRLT

T11: LIN7C, Q9NUP9
T11 sequence (Q9NUP9 88-185, limits assumed, looked up): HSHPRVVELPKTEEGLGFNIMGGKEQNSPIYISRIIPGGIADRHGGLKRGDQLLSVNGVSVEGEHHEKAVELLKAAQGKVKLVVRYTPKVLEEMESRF


Legend:
Assay in all cases: holdup assay
Set-up in all cases: key: below the threshold = too weak to quantify, mostly under pKd 3.1 to 4
Conditions in all cases: plain residues with an end cap or a label only (N-terminal biotin on a linker: ado-ado)
ARHGEF12, Q9NZN5-2 = biological target: ARHGEF12, Q9NZN5-2
NHERF4_4, Q86UT5 = biological target: NHERF4_4, Q86UT5
PDZD7_3, Q9H5P4 = biological target: T1, PDZD7_3, Q9H5P4
LNX1_3, Q8TBB1 = biological target: LNX1_3, Q8TBB1
MAST2, Q6P0Q8 = biological target: MAST2, Q6P0Q8
MAGI2_5, Q86UL8 = biological target: MAGI2_5, Q86UL8
APBA3_1, O96018 = biological target: T2, APBA3_1, O96018
Inadl_9, Q8NI35 = biological target: Inadl_9, Q8NI35
GRIP1_4, Q9Y3R0 = biological target: T3, GRIP1_4, Q9Y3R0
Inadl_1, Q8NI35 = biological target: Inadl_1, Q8NI35
HTRA4, P83105 = biological target: T4, HTRA4, P83105
LIN7B, Q9HAP6 = biological target: T5, LIN7B, Q9HAP6
GRID2IP_1, A4D2P6 = biological target: GRID2IP_1, A4D2P6
DVL3, Q92997 = biological target: T6, DVL3, Q92997
FRMPD2_1, Q68DX3 = biological target: FRMPD2_1, Q68DX3
NHERF4_1, Q86UT5-2 = biological target: NHERF4_1, Q86UT5-2
Inadl_8, Q8NI35 = biological target: Inadl_8, Q8NI35
FRMPD1, Q5SYB0 = biological target: T7, FRMPD1, Q5SYB0
LNX2_3, Q8N448 = biological target: T8, LNX2_3, Q8N448
MPP2, Q14168 = biological target: T9, MPP2, Q14168
Inadl_6, Q8NI35 = biological target: Inadl_6, Q8NI35
Inadl_3, Q8NI35 = biological target: Inadl_3, Q8NI35
DLG4_1, P78352 = biological target: DLG4_1, P78352
IL16_4, Q14005 = biological target: IL16_4, Q14005
PDZD2_2, O15018 = biological target: T10, PDZD2_2, O15018
LIN7C, Q9NUP9 = biological target: T11, LIN7C, Q9NUP9

Chain of MAST2, Q6P0Q8 (Q6P0Q8 1099-1202): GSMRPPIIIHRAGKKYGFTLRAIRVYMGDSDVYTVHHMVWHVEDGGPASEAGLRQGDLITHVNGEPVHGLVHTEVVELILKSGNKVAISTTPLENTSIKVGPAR
Chain of Inadl_1, Q8NI35 (Q8NI35 113-229): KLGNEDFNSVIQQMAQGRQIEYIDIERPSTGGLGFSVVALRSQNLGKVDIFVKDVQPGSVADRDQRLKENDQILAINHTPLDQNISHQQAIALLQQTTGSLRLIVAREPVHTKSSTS
Chain of Inadl_8, Q8NI35 (Q8NI35 1425-1530): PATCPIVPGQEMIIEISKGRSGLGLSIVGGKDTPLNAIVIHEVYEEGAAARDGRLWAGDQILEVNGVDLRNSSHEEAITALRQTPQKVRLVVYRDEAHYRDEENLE
Chain of Inadl_3, Q8NI35 (Q8NI35 359-469): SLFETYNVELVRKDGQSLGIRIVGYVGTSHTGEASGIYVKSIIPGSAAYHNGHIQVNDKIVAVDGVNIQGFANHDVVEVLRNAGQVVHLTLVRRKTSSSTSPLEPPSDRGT
Chain of Inadl_6, Q8NI35 (Q8NI35 1058-1167): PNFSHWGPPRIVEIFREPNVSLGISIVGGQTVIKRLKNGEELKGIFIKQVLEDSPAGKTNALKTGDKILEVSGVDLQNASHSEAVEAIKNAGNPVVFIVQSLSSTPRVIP
Chain of NHERF4_4, Q86UT5 (Q86UT5 464-550): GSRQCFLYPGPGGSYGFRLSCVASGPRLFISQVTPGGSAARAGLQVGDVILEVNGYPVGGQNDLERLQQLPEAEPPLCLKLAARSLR
Chain of Inadl_9, Q8NI35 (Q8NI35 1530-1615): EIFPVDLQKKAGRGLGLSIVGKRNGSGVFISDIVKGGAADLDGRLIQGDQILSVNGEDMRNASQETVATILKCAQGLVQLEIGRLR
Chain of GRID2IP_1, A4D2P6 (A4D2P6 1-87): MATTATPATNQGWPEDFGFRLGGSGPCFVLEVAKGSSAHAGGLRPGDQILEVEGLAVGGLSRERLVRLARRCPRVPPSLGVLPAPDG
Chain of MAGI2_5, Q86UL8 (Q86UL8 915-1017): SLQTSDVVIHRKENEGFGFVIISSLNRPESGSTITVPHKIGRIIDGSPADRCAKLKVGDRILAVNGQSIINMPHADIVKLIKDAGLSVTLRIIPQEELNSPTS
Chain of ARHGEF12, Q9NZN5-2 (Q9NZN5 other isoform, or with tags, fused parts or gaps): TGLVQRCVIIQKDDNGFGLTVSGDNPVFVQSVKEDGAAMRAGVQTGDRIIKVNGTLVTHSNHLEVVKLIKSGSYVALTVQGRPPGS
Chain of DLG4_1, P78352 (P78352 62-152): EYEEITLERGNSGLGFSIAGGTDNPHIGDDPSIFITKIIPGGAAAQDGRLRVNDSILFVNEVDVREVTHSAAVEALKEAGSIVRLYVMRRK
Chain of FRMPD2_1, Q68DX3 (Q68DX3 770-861): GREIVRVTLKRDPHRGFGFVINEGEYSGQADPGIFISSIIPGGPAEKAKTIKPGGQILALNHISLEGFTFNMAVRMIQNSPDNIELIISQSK
Chain of IL16_4, Q14005 (Q14005 1229-1329): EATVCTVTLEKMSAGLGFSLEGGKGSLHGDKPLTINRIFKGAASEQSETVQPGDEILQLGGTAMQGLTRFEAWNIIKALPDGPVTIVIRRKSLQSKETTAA
Chain of LNX1_3, Q8TBB1 (Q8TBB1 500-596): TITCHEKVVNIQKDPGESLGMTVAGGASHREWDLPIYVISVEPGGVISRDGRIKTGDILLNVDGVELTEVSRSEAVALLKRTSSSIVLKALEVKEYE
Chain of NHERF4_1, Q86UT5-2 (Q86UT5 other isoform, or with tags, fused parts or gaps): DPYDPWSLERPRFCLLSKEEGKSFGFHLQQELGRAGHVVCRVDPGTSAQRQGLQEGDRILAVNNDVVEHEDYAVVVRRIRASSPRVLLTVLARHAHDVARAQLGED

| Binder | pKd (ARHGEF12, Q9NZN5-2) | pKd (NHERF4_4, Q86UT5) | pKd (PDZD7_3, Q9H5P4) | pKd (LNX1_3, Q8TBB1) | pKd (MAST2, Q6P0Q8) | pKd (MAGI2_5, Q86UL8) | pKd (APBA3_1, O96018) | pKd (Inadl_9, Q8NI35) | pKd (GRIP1_4, Q9Y3R0) | pKd (Inadl_1, Q8NI35) | pKd (HTRA4, P83105) | pKd (LIN7B, Q9HAP6) | pKd (GRID2IP_1, A4D2P6) | pKd (DVL3, Q92997) | pKd (FRMPD2_1, Q68DX3) | pKd (NHERF4_1, Q86UT5-2) | pKd (Inadl_8, Q8NI35) | pKd (FRMPD1, Q5SYB0) | pKd (LNX2_3, Q8N448) | pKd (MPP2, Q14168) | other results |
| --- | --- | --- | --- | --- | --- | --- | --- | --- | --- | --- | --- | --- | --- | --- | --- | --- | --- | --- | --- | --- | --- |
| TKGPRGPTRV [SAPCD1, Q5SSQ6] | 4.24 | below the threshold | 4.74 | below the threshold | 4.67 | below the threshold | below the threshold | 4.11 | below the threshold | below the threshold | 3.96 | below the threshold | below the threshold | below the threshold | 4.35 | below the threshold | 5.64 | below the threshold | below the threshold | below the threshold | pKd (Inadl_6, Q8NI35): below the threshold; pKd (Inadl_3, Q8NI35): below the threshold; pKd (DLG4_1, P78352): 4.48; pKd (IL16_4, Q14005): below the threshold; pKd (PDZD2_2, O15018): 3.88; pKd (LIN7C, Q9NUP9): below the threshold |
| QGPVETESVV [SLC45A4, Q5BKX6] | below the threshold | below the threshold | 4.56 | below the threshold | 4.73 | 4.55 | below the threshold | 3.75 | below the threshold | below the threshold | 3.97 | below the threshold | below the threshold | below the threshold | below the threshold | 3.48 | 3.7 | below the threshold | below the threshold | below the threshold | pKd (Inadl_6, Q8NI35): 3.57; pKd (Inadl_3, Q8NI35): 3.96; pKd (DLG4_1, P78352): 4.33; pKd (IL16_4, Q14005): below the threshold; pKd (PDZD2_2, O15018): 5.27; pKd (LIN7C, Q9NUP9): below the threshold |
| KKAPTNEFYA [SDC4, P31431] | below the threshold | below the threshold | below the threshold | below the threshold | below the threshold | below the threshold | below the threshold | below the threshold | below the threshold | below the threshold | below the threshold | 3.74 | below the threshold | below the threshold | 3.51 | below the threshold | below the threshold | below the threshold | below the threshold | below the threshold | pKd (Inadl_6, Q8NI35): below the threshold; pKd (Inadl_3, Q8NI35): below the threshold; pKd (DLG4_1, P78352): below the threshold; pKd (IL16_4, Q14005): below the threshold; pKd (PDZD2_2, O15018): below the threshold; pKd (LIN7C, Q9NUP9): 3.78 |
| FNSYSLTGYV [CLDN2, P57739] | 3.84 | 3.99 | below the threshold | below the threshold | 3.77 | below the threshold | below the threshold | below the threshold | below the threshold | below the threshold | 4.08 | below the threshold | below the threshold | 3.81 | 3.49 | 3.9 | 4.27 | below the threshold | below the threshold | below the threshold | pKd (Inadl_6, Q8NI35): below the threshold; pKd (Inadl_3, Q8NI35): 3.57; pKd (DLG4_1, P78352): 3.51; pKd (IL16_4, Q14005): below the threshold; pKd (PDZD2_2, O15018): 4.65; pKd (LIN7C, Q9NUP9): below the threshold |
| VKPQVSESKL [ACOT8, O14734] | 4.03 | below the threshold | 4.15 | below the threshold | 5.52 | below the threshold | below the threshold | below the threshold | below the threshold | below the threshold | below the threshold | 3.59 | below the threshold | below the threshold | below the threshold | 3.78 | below the threshold | below the threshold | below the threshold | below the threshold | pKd (Inadl_6, Q8NI35): below the threshold; pKd (Inadl_3, Q8NI35): below the threshold; pKd (DLG4_1, P78352): below the threshold; pKd (IL16_4, Q14005): below the threshold; pKd (PDZD2_2, O15018): below the threshold; pKd (LIN7C, Q9NUP9): below the threshold |
| PRAEAEDSFL [PDGFRB, P09619] | 3.63 | 4.03 | 3.56 | below the threshold | 5.62 | below the threshold | below the threshold | below the threshold | below the threshold | below the threshold | 3.98 | below the threshold | below the threshold | below the threshold | below the threshold | 3.89 | below the threshold | below the threshold | 3.54 | below the threshold | pKd (Inadl_6, Q8NI35): 3.81; pKd (Inadl_3, Q8NI35): below the threshold; pKd (DLG4_1, P78352): 3.72; pKd (IL16_4, Q14005): below the threshold; pKd (PDZD2_2, O15018): 4.43; pKd (LIN7C, Q9NUP9): below the threshold |
